The text below walks through data of article PMC2529400.

The experiment has as its target KSHV viral G protein-coupled receptor, Flag-tagged (vGPCR-Flag) (Kaposi's sarcoma-associated herpesvirus (human herpesvirus 8)) (UniProt Q98146).
Chain of UniProt Q98146 (Q98146 whole entry): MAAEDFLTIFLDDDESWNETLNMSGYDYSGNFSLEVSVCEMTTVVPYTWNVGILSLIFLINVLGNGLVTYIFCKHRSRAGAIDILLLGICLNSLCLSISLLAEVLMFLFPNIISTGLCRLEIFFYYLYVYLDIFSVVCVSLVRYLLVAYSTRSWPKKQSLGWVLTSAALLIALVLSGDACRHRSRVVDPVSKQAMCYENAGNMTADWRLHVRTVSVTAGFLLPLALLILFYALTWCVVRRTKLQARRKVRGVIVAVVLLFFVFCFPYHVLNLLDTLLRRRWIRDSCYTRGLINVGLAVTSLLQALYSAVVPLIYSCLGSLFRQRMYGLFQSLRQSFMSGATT

As for “KSHV K7 small membrane protein, V5-tagged (K7-V5), wild type (natural protein)”, the AP-1 luciferase reporter activation by vGPCR in 293T cells with K7 co-expressed (about 4.5 fold without K7) turned out to be 2 fold, the NF-AT luciferase reporter activation by vGPCR in 293T cells with K7 co-expressed (about 25 fold without K7) amounted to 8 fold and the NF-κB luciferase reporter activation by vGPCR in 293T cells with K7 co-expressed (about 4 fold without K7) worked out at 2 fold.
